“Also recorded” adds a separate entry of the source. Read-outs that look alike come from different tables or passages of the source. Positions of bridges follow the written chain, without caps; N, C: chain ends.
T1: BMPR-II (Homo sapiens, UniProt Q13873)
T1 sequence (Q13873 27-1038): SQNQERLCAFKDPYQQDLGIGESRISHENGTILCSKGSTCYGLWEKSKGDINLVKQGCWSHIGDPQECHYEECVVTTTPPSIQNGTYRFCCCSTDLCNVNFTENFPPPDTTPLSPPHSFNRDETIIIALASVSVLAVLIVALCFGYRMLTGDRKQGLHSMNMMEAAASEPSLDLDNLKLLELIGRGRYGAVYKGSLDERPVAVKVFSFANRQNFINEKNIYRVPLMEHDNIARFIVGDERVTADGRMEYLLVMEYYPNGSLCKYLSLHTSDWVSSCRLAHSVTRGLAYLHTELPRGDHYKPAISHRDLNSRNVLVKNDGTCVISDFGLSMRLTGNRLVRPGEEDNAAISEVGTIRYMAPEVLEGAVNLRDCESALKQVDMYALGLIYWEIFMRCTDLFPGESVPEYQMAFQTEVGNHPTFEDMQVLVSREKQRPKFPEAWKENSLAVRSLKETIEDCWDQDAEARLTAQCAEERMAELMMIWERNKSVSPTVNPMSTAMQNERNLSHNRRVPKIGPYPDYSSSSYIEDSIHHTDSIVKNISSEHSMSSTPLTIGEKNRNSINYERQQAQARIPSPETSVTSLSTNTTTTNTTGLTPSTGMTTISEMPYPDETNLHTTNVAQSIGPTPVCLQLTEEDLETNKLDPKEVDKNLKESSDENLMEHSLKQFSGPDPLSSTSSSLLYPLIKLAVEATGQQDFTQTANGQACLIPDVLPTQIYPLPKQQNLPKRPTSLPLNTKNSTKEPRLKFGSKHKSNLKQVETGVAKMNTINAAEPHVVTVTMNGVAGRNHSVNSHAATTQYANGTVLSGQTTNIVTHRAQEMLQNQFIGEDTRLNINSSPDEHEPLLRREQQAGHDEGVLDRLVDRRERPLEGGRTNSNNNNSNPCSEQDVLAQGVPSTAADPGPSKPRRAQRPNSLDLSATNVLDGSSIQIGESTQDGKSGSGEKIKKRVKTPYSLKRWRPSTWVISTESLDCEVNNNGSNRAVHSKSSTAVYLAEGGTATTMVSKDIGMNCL

T2: Alk-6 (Homo sapiens, UniProt O00238)
T2 construct: Highly purified extra-cellular domain (ECD) of Alk-3 or Alk-6 (expressed as a fusion protein with Fc domain) served as a receptor
T2 sequence (O00238 14-126 limits assumed): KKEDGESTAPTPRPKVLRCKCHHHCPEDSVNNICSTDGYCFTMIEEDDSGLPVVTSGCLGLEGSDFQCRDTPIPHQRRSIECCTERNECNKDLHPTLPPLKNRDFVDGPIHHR


Tests used:
[1] = test system: NP-1 cells; assay: TGF-β-induced EMT in NP-1 cells (inhibition and reversal); assay type: cell-based; settings: added after EMT induction for additional 48 hrs; BMP 7 1 μg/ml, THR-123 10 μM
[2] = test system: Smad 1/5/8; assay: Smad 1/5/8 phosphorylation and nuclear translocation in HK-2 cells; assay type: cell-based, human
Experimental: Human renal proximal tubule epithelial cells (HK-2) were incubated in the presence (right panel) and absence (left panel) of THR-123. The cells were washed, and then incubated with the primary antibody against phospho Smad 1/5/8, followed by immunostaining with a fluorescently labeled secondary antibody. The significance of pSmad 1/5/8 in renal fibrosis is tied to BMP7 suppression of TGF-β-dependent profibrotic pathways, which are central to renal fibrotic injury. Specifically, BMP7 suppression of such TGF-β-dependent profibrotic pathways is mediated in part by the activation of downstream BMP target proteins, Smad 1, 5, and 8. (Manson S R et al., J. Urol. 85:2523-30, 2011).

[3] = biological target: T1, BMPR-II; assay: BMP type II receptor binding
Source text: FIG. 31 provides a table indicating a comparison between THR-123 (SEQ ID NO: 1) and BMP-7 for binding to Type I and Type II BMP receptors. Like BMP-7, THR-123 binds to both ALK2 and ALK3 (type I) and BMPR-II (type II) BMP receptors. However, BMP-7, but not THR-123 binds to ALK6 (type I) receptor.

[4] = test system: NP-1 cells; assay: Hypoxia-induced apoptosis in NP-1 cells (Annexin V); assay type: cell-based; settings: 2.5% O2 24 h; BMP-7 1 μg/ml, THR-123 10 μM
Experimental: FIG. 49A-FIG. 49D THR-123 inhibits Hypoxia-induced apoptosis in NP-1 cells. NP-1 cells are incubated with hypoxia (2.5% O2) for 24 h in the presence of indicated molecules. Apoptosis was analyzed by Annexin V labeling (Roche). Representative merged picture (Green: Annexin V and bright field image) of cells treated with hypoxia only (FIG. 49A), hypoxia+BMP-7 (1 μg/ml) FIG. 49(B), hypoxia+THR-123 (10 μM) (FIG. 49C) and hypoxia+ctrl peptide (FIG. 49D).

[5] = biological target: T2, Alk-6; assay: Radio-ligand (125I-BMP7) receptor binding assay, Alk-6 ECD
Source text: FIG. 45A-FIG. 45G Pharmacokinetics of THR-123. FIG. 45A. BMP7 structure figure with the residue weights resulting from the analysis mapped on to it. FIG. 45B, FIG. 45C. Radio-ligand receptor binding assays specific for individual type I receptors, Alk-3 (FIG. 45B) and Alk-6 (FIG. 45C). Highly purified extra-cellular domain (ECD) of Alk-3 or Alk-6 (expressed as a fusion protein with Fc domain) served as a receptor. In each assay purified receptor was immobilized on each well and peptide analog or unlabeled BMP7 was added, followed by ^125I-labeled BMP7. Radiolabeled BMP7 complex was counted in an auto-gamma counter. Results were expressed as the mean±s.e.m. […] Concentration of THR-123 in systemic circulation of Wistar rats following iv injection of THR-123 (^125I-Tyr) via the tail vein determined by total radioactivity measurement. […] Six hours after intravenous administration of ^125I labeled-THR-123 in rats at a dose of 6.25 mg/kg-body weight, tissues were harvested and analyzed by automatic gamma well counter. […] Radioactivity of orally administrated ^125I labeled-THR-123 at a dose of 5 mg/kg body weight was localized in the kidney between 1 and 6 hours after administration and peaked at around 3 hours.
First, specific affinity of the extra cellular domains (ECD) of the several type I receptors of BMPs to THR-123 was analyzed. […]

Molecule | reversal of EMT morphology [1] | Smad 1/5/8 phosphorylation and nuclear translocation [2] | binding to BMPR-II [3] | hypoxia-induced apoptosis [4] | binding to ALK6 (competition with 125I-BMP7) ([5]; listed as THR-123) | binding to ALK6 (competition with 125I-BMP7) [5]
(H)-CYFDDSSNVLCKKYRS-(OH) (H-CYFDDSSNVLCKKYRS-OH; disulfide 1-11; SMILES CC(C)C[C@@H]1NC(=O)[C@H](C(C)C)NC(=O)[C@H](CC(N)=O)NC(=O)[C@H](CO)NC(=O)[C@H](CO)NC(=O)[C@H](CC(=O)O)NC(=O)[C@H](CC(=O)O)NC(=O)[C@H](Cc2ccccc2)NC(=O)[C@H](Cc2ccc(O)cc2)NC(=O)[C@@H](N)CSSC[C@@H](C(=O)N[C@@H](CCCCN)C(=O)N[C@@H](CCCCN)C(=O)N[C@@H](Cc2ccc(O)cc2)C(=O)N[C@@H](CCCNC(=N)N)C(=O)N[C@@H](CO)C(=O)O)NC1=O) [SEQ ID NO: 1] | reversal of the morphology | induces Smad 1/5/8 phosphorylation and nuclear translocation | binds | decreased apoptosis | absolutely no competition; also recorded: does not bind | 
BMP-7: bone morphogenetic protein-7; recombinant human BMP7, positive control (protein) STGSKQRSQNRSKTPKNQEALRMANVAENSSSDQRQACKKHELYVSFRDLGWQDWIIAPEGYAAYYCEGECAFPLNSYMNATNHAIVQTLVHFINPETVPKPCCAPTQLNAISVLYFDDSSNVILKKYRNMVVRACGCH | reversal of the morphology |  | binds | decreased apoptosis |  | binds

Reference: patent publication US20160058829A1, “ANTI-FIBROTIC PEPTIDES AND THEIR USE IN METHODS FOR TREATING DISEASES AND DISORDERS CHARACTERIZED BY FIBROSIS” (Thrasos Innovation, Inc., priority 2011, published 2016)
